{"source": "patent US20210403547A1", "about": "(Eli Lilly, published 2021)", "binders": {"B1": {"name": "Antibody III (antibody, mouse IgG1, kappa, V domains shown)", "VH": "QVQLQQSGPELVKPGASVKISCKASGYTFTDAYINWVKQRPGQGLEWIGWIWPGPVITYYNPKFKGKATLTVDKSSSTAYMLLSSLTSEDSAFYFCARREVLSPFAYWGQGTLVTVSA", "VL": "DVLMTQTPLSLPVSLGDQASISCRSSQSIVHSTGNTYLEWYLQKPGQSPKLLIYKVSNRFSGVPDRFSGSGSGTDFTLKISRVEAEDLGVYYCFHGTHVPYTFGGGTKLEIKR", "notes": "Mouse monoclonal antibody with the same CDRs as Antibody I; also called mouse antibody"}, "B2": {"name": "Antibody I (antibody, human IgG4 S228P, kappa, F234A L235A, V domains shown)", "VH": "QVQLVQSGAEVKKPGSSVKVSCKASGYTFTDAYINWVRQAPGQGLEWMGWIWPGPVITYYNPKFKGRVTITADKSTSTAYMELSSLRSEDTAVYYCARREVLSPFAYWGQGTTVTVSS", "VL": "DIVMTQSPDSLAVSLGERATINCRSSQSIVHSTGNTYLEWYQQKPGQPPKLLIYKVSNRFSGVPDRFSGSGSGTDFTLTISSLQAEDVAVYYCFHGTHVPYTFGGGTKVEIKR", "notes": "Humanized IgG4 monoclonal antibody"}}, "key": {"[1]": {"biological_target": "T1, Rat TGF-alpha (rat, UniProt P01134 39-88)", "test": "cell-based or functional assay"}, "[2]": {"biological_target": "T2, Met-human Epiregulin (human, UniProt O14944 63-108)", "test": "cell-based or functional assay"}, "[3]": {"biological_target": "Human TGF-alpha (human, UniProt P01135 40-89)", "test": "cell-based or functional assay"}, "[4]": {"biological_target": "T3, Mouse Epiregulin (mouse (Mus musculus), UniProt Q61521 56-101)", "test": "cell-based or functional assay"}, "[5]": {"biological_target": "T3, Mouse Epiregulin", "test": "SPR (Biacore), antibody captured on chip, ligand injected, KD = koff/kon, 25 C", "description": "(§1) Biacore T2000 instrument (BIAcore® AB, Upsala, Sweden), reagents and Biacore T2000 Evaluation Software Ver 4.1 are used for the Surface Plasmon Resonance analysis. A CMS chip is prepared using manufacturer's EDC/NHS amine coupling method. The surfaces of all four flow cells are activated by injecting a 1:1 mixture of EDC/NHS for 7 minutes at 10 μL/min. […] Un-reacted sites are blocked with a 7 minute injection of ethanolamine at 10 μL/min. Injections of 3×20 seconds of glycine pH 1.5 at 30 μL/min are used to remove non-covalently associated protein. The running buffer is HBS-EP [10 mM HEPES, 150 mM Sodium Chloride, 3 mM EDTA, 0.005% Polysorbate 20].\n(§2) Duplicate injections of each ligand concentration are injected at 30 μL/min for 300 seconds followed by a dissociation phase. […] Regeneration is performed by injecting 10 mM glycine pH 1.5 for 30 seconds at 30 μL/min over all flowcell.\n(§3) Reference-subtracted data are collected as Fc2-Fc1. The measurements are obtained at 25° C. The on-rate (kₒₙ) and off-rate (koff) for each ligand are evaluated using a “1:1 (Langmuir) Binding” binding model. The affinity (KD) is calculated from the binding kinetics according to the relationship: KD=koff/kₒₙ."}, "[6]": {"biological_target": "T4, Mouse TGF-alpha (mouse (Mus musculus), UniProt P48030 39-88)", "T4 construct": "also called mouse TGFα", "test": "SPR (Biacore), antibody captured on chip, ligand injected, KD = koff/kon, 25 C", "description": "as §1, §2, §3"}, "[7]": {"biological_target": "Mouse Epigen (mouse (Mus musculus), UniProt Q924X1 53-103)", "test": "SPR, 25 C"}, "[8]": {"biological_target": "T3, Mouse Epiregulin", "test": "SPR (Biacore), antibody captured on chip, ligand injected, 1:1 Langmuir fit, 25 C", "description": "as §1, §2, §3"}, "[9]": {"biological_target": "T4, Mouse TGF-alpha", "test": "SPR (Biacore), antibody captured on chip, ligand injected, 1:1 Langmuir fit, 25 C", "description": "as §1, §2, §3"}, "[10]": {"biological_target": "T5, Human Amphiregulin (human, UniProt P15514 101-187)", "T5 sequence": "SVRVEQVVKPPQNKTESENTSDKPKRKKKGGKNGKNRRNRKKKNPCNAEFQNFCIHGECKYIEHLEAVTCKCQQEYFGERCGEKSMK", "test": "cell-based or functional assay"}, "[11]": {"biological_target": "Human EGF (human, UniProt P01133 971-1023)", "test": "cell-based or functional assay"}, "[12]": {"biological_target": "T6, Human Betacellulin (human, UniProt P35070 32-111)", "T6 sequence": "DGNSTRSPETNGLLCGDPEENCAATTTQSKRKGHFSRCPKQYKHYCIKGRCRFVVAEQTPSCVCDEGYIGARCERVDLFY", "test": "cell-based or functional assay"}, "[13]": {"biological_target": "Human HBEGF (human, UniProt Q99075 63-148)", "test": "cell-based or functional assay"}, "[14]": {"biological_target": "T1, Rat TGF-alpha", "test": "SPR (Biacore), antibody captured via anti-Fc on chip, ligand injected, KD = koff/kon, 25 C", "description": "as §1\n(§4) Duplicate injections of each ligand concentration are injected at 30 μL/min for 300 seconds followed by a dissociation phase. […] Regeneration is performed by injecting 10 mM glycine pH 1.5 for 3×20 seconds at 30 μL/min over all flowcell.\nas §3"}, "[15]": {"biological_target": "T2, Met-human Epiregulin", "test": "SPR (Biacore), antibody captured via anti-Fc on chip, ligand injected, KD = koff/kon, 25 C", "description": "as §1, §4, §3"}, "[16]": {"biological_target": "T3, Mouse Epiregulin", "test": "SPR (Biacore), antibody captured via anti-Fc on chip, ligand injected, KD = koff/kon, 25 C", "description": "as §1, §4, §3"}, "[17]": {"biological_target": "T7, Cynomolgus Epiregulin (cynomolgus (Macaca fascicularis), UniProt O14944 63-108 (human entry))", "T7 construct": "also called cynomolgus monkey epiregulin", "test": "SPR (Biacore), antibody captured via anti-Fc on chip, ligand injected, KD = koff/kon, 25 C", "description": "as §1, §4, §3"}, "[18]": {"biological_target": "T1, Rat TGF-alpha", "test": "cell-based or functional assay", "remark": "listed apart in the source"}, "[19]": {"biological_target": "T2, Met-human Epiregulin", "test": "cell-based or functional assay", "remark": "listed apart in the source"}, "[20]": {"biological_target": "rat epigen (rat)", "test": "cell-based or functional assay"}, "[21]": {"biological_target": "T3, Mouse Epiregulin", "test": "cell-based or functional assay", "remark": "listed apart in the source"}, "[22]": {"biological_target": "cynomolgus monkey epigen (cynomolgus monkey, UniProt G7P5K4 23-110)", "test": "cell-based or functional assay"}, "[23]": {"biological_target": "rat epiregulin (rat, UniProt Q9Z0L5 56-101, limits assumed)", "test": "cell-based or functional assay"}, "[24]": {"biological_target": "T4, Mouse TGF-alpha", "test": "cell-based or functional assay"}, "[25]": {"biological_target": "T7, Cynomolgus Epiregulin", "test": "cell-based or functional assay"}}, "data": [{"binder": "B1", "values": [{"measurement": "IC50, neutralization of ligand-stimulated MFc7 cell proliferation (BrDU incorporation), ligand at 0.5 nM", "setting": "[1]", "result": 0.13, "unit": "nM"}, {"measurement": "IC50, neutralization of ligand-stimulated MFc7 cell proliferation (BrDU incorporation)", "setting": "[2]", "result": 1.12, "unit": "nM"}, {"measurement": "IC50, neutralization of ligand-stimulated MFc7 cell proliferation (BrDU incorporation)", "setting": "[3]", "result": 0.52, "unit": "nM"}, {"measurement": "IC50, neutralization of ligand-stimulated MFc7 cell proliferation (BrDU incorporation), ligand at 0.5 nM", "setting": "[4]", "result": 214, "unit": "nM"}, {"measurement": "Kd", "setting": "[5]", "result": 215, "unit": "nM"}, {"measurement": "Kd", "setting": "[6]", "result": 0.038, "unit": "nM"}, {"measurement": "Kd", "setting": "[7]", "result": 365, "unit": "nM"}, {"measurement": "koff", "setting": "[8]", "result": 0.0141, "unit": "s⁻¹"}, {"measurement": "kon", "setting": "[8]", "result": 65500, "unit": "M⁻¹ s⁻¹"}, {"measurement": "koff", "setting": "[9]", "result": "2.02e-05", "unit": "s⁻¹"}, {"measurement": "kon", "setting": "[9]", "result": 541000, "unit": "M⁻¹ s⁻¹"}]}, {"binder": "B2", "values": [{"measurement": "IC50, neutralization of ligand-stimulated MFc7 cell proliferation (BrDU incorporation), ligand at 0.5 nM", "setting": "[1]", "result": 0.19, "unit": "nM"}, {"measurement": "IC50, neutralization of ligand-stimulated MFc7 cell proliferation (BrDU incorporation), ligand at 60 nM", "setting": "[10]", "result": "> 2000", "unit": "nM"}, {"measurement": "IC50, neutralization of ligand-stimulated MFc7 cell proliferation (BrDU incorporation), ligand at 0.5 nM", "setting": "[2]", "result": 3.15, "unit": "nM"}, {"measurement": "IC50, neutralization of ligand-stimulated MFc7 cell proliferation (BrDU incorporation), ligand at 0.5 nM", "setting": "[4]", "result": 334, "unit": "nM"}, {"measurement": "IC50, neutralization of ligand-stimulated MFc7 cell proliferation (BrDU incorporation), ligand at 0.5 nM", "setting": "[11]", "result": "> 2000", "unit": "nM"}, {"measurement": "IC50, neutralization of ligand-stimulated MFc7 cell proliferation (BrDU incorporation), ligand at 0.5 nM", "setting": "[12]", "result": "> 2000", "unit": "nM"}, {"measurement": "IC50, neutralization of ligand-stimulated MFc7 cell proliferation (BrDU incorporation), ligand at 0.5 nM", "setting": "[13]", "result": "> 2000", "unit": "nM"}, {"measurement": "Kd", "setting": "[14]", "result": 0.0705, "unit": "nM"}, {"measurement": "Kd", "setting": "[15]", "result": 1.29, "unit": "nM"}, {"measurement": "Kd", "setting": "[16]", "result": 342, "unit": "nM"}, {"measurement": "Kd", "setting": "[17]", "result": 1.05, "unit": "nM"}, {"measurement": "IC50, neutralization of ligand-stimulated myofibroblast proliferation", "setting": "[18]", "result": "< 0.5", "unit": "nM"}, {"measurement": "IC50, neutralization of ligand-stimulated myofibroblast proliferation", "setting": "[19]", "result": "< 3.5", "unit": "nM"}, {"measurement": "IC50, neutralization of ligand-stimulated myofibroblast proliferation", "setting": "[20]", "result": "< 850", "unit": "nM"}, {"measurement": "IC50, neutralization of ligand-stimulated myofibroblast proliferation", "setting": "[21]", "result": "< 350", "unit": "nM"}, {"measurement": "IC50, neutralization of ligand-stimulated myofibroblast proliferation", "setting": "[22]", "result": "< 850", "unit": "nM"}, {"measurement": "IC50, neutralization of ligand-stimulated myofibroblast proliferation", "setting": "[23]", "result": "< 350", "unit": "nM"}, {"measurement": "IC50, neutralization of ligand-stimulated myofibroblast proliferation", "setting": "[24]", "result": "< 0.5", "unit": "nM"}, {"measurement": "IC50, neutralization of ligand-stimulated myofibroblast proliferation", "setting": "[25]", "result": "< 3.5", "unit": "nM"}]}]}
